Assay results published in patent US20170190787A1 (INSERM INSTITUT NATIONAL DE LA SANT ET DE LA RECHERCHE M …, published 2017).

B1: biparatopic single domain antibody D4E (D10 - 4x(G4S) linker - E10) (bispecific antibody)
chain: EVQLQESGGGLVQAGGSLRLSCAVSISRTIFSLYAMEWYRQPPGKQRDLVARIYRSGDTNYADSVKGRFTISRDNAKNTVYLQMNSLKPEDTGVYYCNSPAQDWPWGQGTQVTVSSAAAGGGGSGGGGSGGGGSGGGGSMAQVQLQESGGGLAQAGGSLRLSCAASGRTLSSYDMGWFRQAPGKEREFVTAINWGDLSTYYADSVKGRFTISRDNAKNTVYLQMNSLKPEDTAVYYCAARLRYTVSDPIFSRPDRYNYWGQGTQVTVSSAAAEQKLISEEDLNGAAHHHHHHGS
notes: also called bisdAb D4E
B2: d2-labeled anti-EGFR single domain antibody G10 (VHH)
VHH: EVQLVESGGGLVQAGGSLRLSCAASGRTFSNYAMGWFRQAPGKEREFVAGIIWSGSRTYYADPVKGRFTISRDNAKNTVYLQMNSLNVEDTAVYYCAASMGDYDVSLASPRSWGKGTQVTVSS
modifications: d2 fluorochrome (d2-NHS) on lysine residues, positions not given
notes: G10 chemically coupled to the acceptor fluorochrome d2 by NHS chemistry; also called G10-d2; d2-labeled clone G10; not shown: His tag
B3: anti-EGFR single domain antibody G10 (VHH, not shown: small tags and cut ends)
VHH: B2 VHH
notes: Llama VHH produced in E. coli, His-tagged; also called sdAb G10; unlabeled G10
B4: anti-EGFR single domain antibody D10 (VHH, not shown: small tags and cut ends)
VHH: EVQLVESGGGLVQAGGSLRLSCAVSISRTIFSLYAMEWYRQPPGKQRDLVARIYRSGDTNYADSVKGRFTISRDNAKNTVYLQMNSLKPEDTGVYYCNSPAQDWPWGQGTQVTVSS
notes: Llama VHH produced in E. coli, His-tagged; also called sdAb D10; unlabeled D10
B5: d2-labeled anti-EGFR single domain antibody D10 (VHH)
VHH: B4 VHH
modifications: d2 fluorochrome (d2-NHS) on lysine residues, positions not given
notes: D10 chemically coupled to the acceptor fluorochrome d2 by NHS chemistry; also called D10-d2; d2-labeled clone D10; not shown: His tag
B6: d2-labeled anti-EGFR single domain antibody E10 (VHH)
VHH: QVQLQESGGGLAQAGGSLRLSCAASGRTLSSYDMGWFRQAPGKEREFVTAINWGDLSTYYADSVKGRFTISRDNAKNTVYLQMNSLKPEDTAVYYCAARLRYTVSDPIFSRPDRYNYWGQGTQVTVSS
modifications: d2 fluorochrome (d2-NHS) on lysine residues, positions not given
notes: E10 chemically coupled to the acceptor fluorochrome d2 by NHS chemistry; also called E10-d2; E10-D2; not shown: His tag
B7: anti-EGFR single domain antibody E10 (VHH, not shown: small tags and cut ends)
VHH: B6 VHH
notes: Llama VHH produced in E. coli, His-tagged; also called sdAb E10; unlabeled E10

Legend:
[1] = molecular target: T1, wild type EGFR on cells (A431 cells; HEK293T or NIH/3T3 cells transfected with wild type ErbB1) (UniProt P00533 25-1210, limits assumed); experiment: cell-based or functional assay
[2] = molecular target: T2, wild type EGFR on cells in the presence of EGF (ligand-activated, extended conformation) (UniProt P00533 25-1210; P01133 971-1023); experiment: flow cytometry on A431 cells, G10-d2 in the presence of EGF
T2 construct: Receptor-ligand complex as the target: EGFR with EGF added to the cells; also called extended EGFR

[3] = molecular target: T3, EGFR fused to SNAP-tag, expressed on transfected HEK293T cells (UniProt P00533 25-1210, terbium cryptate donor fluorochrome (SNAP-Tb) covalently on the SNAP-tag); experiment: HTRF on EGFR-ST cells; KD in the presence of D10 as competitor
T3 construct: whole, on cells; also called EGFR-ST; ErbB1-ST; not shown: SNAP-tag and FLAG tag (Cisbio plasmid)

[4] = molecular target: T3, EGFR fused to SNAP-tag, expressed on …; experiment: HTRF on EGFR-ST cells; KD in the presence of E10 as competitor
[5] = molecular target: T3, EGFR fused to SNAP-tag, expressed on …; experiment: KD in the presence of m425 as competitor; method not stated for Table 3
[6] = molecular target: T3, EGFR fused to SNAP-tag, expressed on …; experiment: HTRF on EGFR-ST cells; KD in the presence of irrelevant sdAb as competitor
[7] = molecular target: T3, EGFR fused to SNAP-tag, expressed on …; experiment: KD in the presence of cetuximab as competitor; method not stated for Table 3
[8] = molecular target: T3, EGFR fused to SNAP-tag, expressed on …; experiment: KD in the presence of panitumumab as competitor; method not stated for Table 3
[9] = molecular target: T3, EGFR fused to SNAP-tag, expressed on …; experiment: HTRF on EGFR-ST transfected HEK293T cells, directly d2-labeled sdAb; apparent Kd
[10] = molecular target: T3, EGFR fused to SNAP-tag, expressed on …; experiment: KD in the presence of irrelevant sdAb as competitor; method not stated for Table 3
[11] = molecular target: T4, ErbB2 fused to SNAP-tag, expressed on transfected HEK293T cells (UniProt P04626 23-1255, donor fluorochrome covalently on the SNAP-tag); experiment: HTRF on transfected HEK293T cells, anti-His-d2 detection
T4 construct: whole, on cells; also called ErbB2-ST; not shown: SNAP-tag and FLAG tag

[12] = molecular target: T5, ErbB3 fused to SNAP-tag, expressed on transfected HEK293T cells (UniProt P21860 20-1342, donor fluorochrome covalently on the SNAP-tag); experiment: as above
T5 construct: whole, on cells; also called ErbB3-ST; not shown: SNAP-tag and FLAG tag

[13] = molecular target: T6, ErbB4 fused to HALO-Tag, expressed on transfected HEK293T cells (UniProt Q15303 26-1308, donor fluorochrome covalently on the HALO-Tag); experiment: as above
T6 construct: whole, on cells; also called ErbB4-HT; not shown: HALO-Tag and c-myc tag
T6 sequence (Q15303 26-1308): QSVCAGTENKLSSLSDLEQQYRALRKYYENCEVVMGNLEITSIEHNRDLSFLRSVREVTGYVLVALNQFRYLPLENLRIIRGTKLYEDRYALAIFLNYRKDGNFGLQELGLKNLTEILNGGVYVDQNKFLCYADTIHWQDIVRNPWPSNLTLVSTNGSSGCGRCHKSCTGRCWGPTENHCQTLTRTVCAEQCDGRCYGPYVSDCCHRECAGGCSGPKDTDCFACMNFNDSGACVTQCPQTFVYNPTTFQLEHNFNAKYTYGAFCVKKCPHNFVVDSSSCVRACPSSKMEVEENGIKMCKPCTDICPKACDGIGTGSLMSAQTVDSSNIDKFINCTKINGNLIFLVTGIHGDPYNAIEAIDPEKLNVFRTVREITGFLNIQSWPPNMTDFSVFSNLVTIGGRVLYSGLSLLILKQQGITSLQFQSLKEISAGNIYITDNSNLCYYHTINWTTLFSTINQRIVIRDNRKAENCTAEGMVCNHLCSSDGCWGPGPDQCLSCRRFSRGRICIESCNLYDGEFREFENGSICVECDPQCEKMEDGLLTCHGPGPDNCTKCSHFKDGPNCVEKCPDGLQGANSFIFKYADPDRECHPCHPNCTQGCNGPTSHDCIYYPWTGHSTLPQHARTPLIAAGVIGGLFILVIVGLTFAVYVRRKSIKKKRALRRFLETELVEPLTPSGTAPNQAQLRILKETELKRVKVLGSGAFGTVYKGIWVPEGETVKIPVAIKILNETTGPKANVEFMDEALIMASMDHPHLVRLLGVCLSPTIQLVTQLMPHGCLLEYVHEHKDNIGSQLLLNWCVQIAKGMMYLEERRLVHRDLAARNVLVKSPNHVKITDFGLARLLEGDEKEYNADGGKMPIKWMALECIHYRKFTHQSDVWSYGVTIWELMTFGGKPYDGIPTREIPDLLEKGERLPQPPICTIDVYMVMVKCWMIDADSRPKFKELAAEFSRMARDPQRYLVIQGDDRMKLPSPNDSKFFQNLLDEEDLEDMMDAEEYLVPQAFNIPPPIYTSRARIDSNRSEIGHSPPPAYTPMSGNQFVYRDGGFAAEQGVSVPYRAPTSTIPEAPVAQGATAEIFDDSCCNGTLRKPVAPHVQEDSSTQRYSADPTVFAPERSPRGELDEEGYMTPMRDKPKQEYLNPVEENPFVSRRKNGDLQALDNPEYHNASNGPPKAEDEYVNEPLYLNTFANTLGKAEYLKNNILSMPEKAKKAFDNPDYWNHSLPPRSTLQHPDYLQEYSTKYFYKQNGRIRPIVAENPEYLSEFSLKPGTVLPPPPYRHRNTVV

[14] = molecular target: T3, EGFR fused to SNAP-tag, expressed on …; experiment: HTRF on EGFR-ST transfected HEK293T cells, sdAb detected with anti-His-d2; apparent Kd
[15] = molecular target: T3, EGFR fused to SNAP-tag, expressed on …; experiment: HTRF on living cells; comparison value for monovalent D10
[16] = molecular target: T2, wild type EGFR on cells in the presence …; experiment: flow cytometry on A431 cells, d2-labeled sdAb with excess EGF
[17] = molecular target: T3, EGFR fused to SNAP-tag, expressed on …; experiment: HTRF on EGFR-ST cells; KD in the presence of G10 as competitor
[18] = molecular target: T3, EGFR fused to SNAP-tag, expressed on …; experiment: KD in the presence of Ab-3 as competitor; method not stated for Table 3
[19] = molecular target: T3, EGFR fused to SNAP-tag, expressed on …; experiment: KD in the presence of irrelevant sdAb as competitor; method not stated for Table 3 (values of this column equal Table 2, HTRF on EGFR-ST)
[20] = molecular target: T1, wild type EGFR on cells (A431 cells; …); experiment: flow cytometry on A431 cells, d2-labeled sdAb with large excess of cetuximab

Binder | Kd [6] [nM] | Kd [7] [nM] | Kd [8] [nM] | Kd [9] [nM] | binding result [11] | binding result [12] | binding result [13] | Kd [14] [nM] | other results
B1 | – | – | – | – | – | – | – | – | inhibition of EGF-induced EGFR phosphorylation (FIG. 11); concentration against that of cetuximab [1]: 100 fold
B2 | 12 | 21 | 27 | 87 | – | – | – | – | fold increase of affinity against EGFR without EGF [2]: 8 fold; Kd [3]: 6 nM; Kd [4]: 17 nM; Kd [5]: 32 nM; Kd [10]: 12 nM
B3 | – | – | – | – | no binding | no binding | no binding | 15 | –
B4 | – | – | – | – | no binding | no binding | no binding | 7 | Kd [15]: 6 nM
B5 | 7 | 10 | 13 | 27 | – | – | – | – | binding result [16]: no binding; Kd [4]: 11 nM; Kd [17]: 7 nM; Kd [18]: 3 nM; Kd [5]: 14 nM; Kd [19]: 7 nM
B6 | 20 | 11 | 70 | 106 | – | – | – | – | binding result [16]: no binding; Kd [3]: 17 nM; Kd [17]: 17 nM; Kd [18]: 67 nM; fold increase of binding in the presence of cetuximab [20]: 2 fold; Kd [10]: 20 nM
B7 | – | – | – | – | no binding | no binding | no binding | 25 | –
